Test results as given in US20250277048A1 (Regeneron, published 2025).

B1: REGN17289 (antibody, V domains shown)
VH: EVQLVESGGGLVQPGGSLRLSCAASGFTFSSYAMNWVRQAPGKGLEWVSIISGTIGKTYYADSVKGRFTISRDNSKNTLYLQMNSLRGEDTAVYYCAKDTERDITGSPFDYWGQGTLVTVSS
VL: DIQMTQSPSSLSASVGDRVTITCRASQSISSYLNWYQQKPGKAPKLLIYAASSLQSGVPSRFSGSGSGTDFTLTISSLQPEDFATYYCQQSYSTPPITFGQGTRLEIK
notes: bivalent mAb with two Fab arms identical to the 30027 arm; also called Parental CD40 (30027)
B2: REGN17544 (antibody, V domains shown)
VH: EVQLVESGGGLVQPGGSLRLSCAASGFTFGSYGMAWVRQAPGKGLEWVSAISGSGDYTNYADSVKRRFTISRDNSKNTLYLQMSSLRAEDTAVYYCAKEKTGTTGYLYSGMDVWGQGTTVTVSS
VL: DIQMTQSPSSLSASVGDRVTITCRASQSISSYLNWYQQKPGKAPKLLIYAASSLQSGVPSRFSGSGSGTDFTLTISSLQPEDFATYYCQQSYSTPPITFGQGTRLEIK
notes: bivalent mAb with two Fab arms identical to the 21520 arm; also called Parental CD40 (21520)
B3: REGN20484 (bispecific antibody, human IgG4 S228P, kappa)
heavy 1: EVQLVESGGGLVQPGGSLRLSCAASGFTFGSYGMAWVRQAPGKGLEWVSAISGSGDYTNYADSVKRRFTISRDNSKNTLYLQMSSLRAEDTAVYYCAKEKTGTTGYLYSGMDVWGQGTTVTVSSASTKGPSVFPLAPCSRSTSESTAALGCLVKDYFPEPVTVSWNSGALTSGVHTFPAVLQSSGLYSLSSVVTVPSSSLGTKTYTCNVDHKPSNTKVDKRVESKYGPPCPPCPAPGGGGPSVFLFPPKPKDTLMISRTPEVTCVVVDVSQEDPEVQFNWYVDGVEVHNAKTKPREEQFNSTYRVVSVLTVLHQDWLNGKEYKCKVSNKGLPSSIEKTISKAKGQPREPQVYTLPPSQEEMTKNQVSLTCLVKGFYPSDIAVEWESNGQPENNYKTTPPVLDSDGSFFLYSRLTVDKSRWQEGNVFSCSVMHEALHNHYTQKSLSLSLGK
heavy 2: EVQLVESGGGLVQPGGSLRLSCAASGFTFSSYAMNWVRQAPGKGLEWVSIISGTIGKTYYADSVKGRFTISRDNSKNTLYLQMNSLRGEDTAVYYCAKDTERDITGSPFDYWGQGTLVTVSSASTKGPSVFPLAPCSRSTSESTAALGCLVKDYFPEPVTVSWNSGALTSGVHTFPAVLQSSGLYSLSSVVTVPSSSLGTKTYTCNVDHKPSNTKVDKRVESKYGPPCPPCPAPGGGGPSVFLFPPKPKDTLMISRTPEVTCVVVDVSQEDPEVQFNWYVDGVEVHNAKTKPREEQFNSTYRVVSVLTVLHQDWLNGKEYKCKVSNKGLPSSIEKTISKAKGQPREPQVYTLPPSQEEMTKNQVSLTCLVKGFYPSDIAVEWESNGQPENNYKTTPPVLDSDGSFFLYSRLTVDKSRWQEGNVFSCSVMHEALHNRFTQKSLSLSPGK
light: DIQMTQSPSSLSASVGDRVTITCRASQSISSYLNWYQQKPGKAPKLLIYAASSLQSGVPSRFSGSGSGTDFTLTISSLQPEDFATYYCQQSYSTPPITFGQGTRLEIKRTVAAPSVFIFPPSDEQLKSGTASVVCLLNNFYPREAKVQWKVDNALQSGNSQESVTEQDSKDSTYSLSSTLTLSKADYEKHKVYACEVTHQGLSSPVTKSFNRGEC
B4: REGN17288 (antibody, V domains shown)
VH: QLQLQESGPGLVRPSETLSLTCSVSGASMNTNNYYWGWIRQPPGKGLEWIGSGYYNGNTYYNPSLKSRVTISVDTSKNQFSLKLNSVTAADTAVYYCARQTPPRIIGSPNIWGQGTMVTVSS
VL: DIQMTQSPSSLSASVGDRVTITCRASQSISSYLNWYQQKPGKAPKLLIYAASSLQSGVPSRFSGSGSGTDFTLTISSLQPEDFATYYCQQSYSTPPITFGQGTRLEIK
notes: also called Parental CD40 (21519)
B5: REGN11209 (comparator anti-CD40 antibody) (antibody, human IgG1, kappa, N297A, V domains shown)
VH: QVQLVESGGGVVQPGRSLRLSCAASGFTFSSYGMHWVRQAPGKGLEWVAVISYEESNRYHADSVKGRFTISRDNSKITLYLQMNSLRTEDTAVYYCARDGGIAAPGPDYWGQGTLVTVSS
VL: DIVMTQSPLSLTVTPGEPASISCRSSQSLLYSNGYNYLDWYLQKPGQSPQVLISLGSNRASGVPDRFSGSGSGTDFTLKISRVEAEDVGVYYCMQARQTPFTFGPGTKVDIRR

Experiments:
[1] = target: T1, human CD40 (hCD40) expressed on cells (human, UniProt P25942 21-277); assay: flow cytometry, HEK293/D9/hCD40 cells
T1 construct: whole, on cells; one entry for transfected and endogenous human CD40; the cell line is named under assay or readout; also called HEK293/D9/hCD40; Ramos 2G6.4C10
T1 sequence (P25942 21-277): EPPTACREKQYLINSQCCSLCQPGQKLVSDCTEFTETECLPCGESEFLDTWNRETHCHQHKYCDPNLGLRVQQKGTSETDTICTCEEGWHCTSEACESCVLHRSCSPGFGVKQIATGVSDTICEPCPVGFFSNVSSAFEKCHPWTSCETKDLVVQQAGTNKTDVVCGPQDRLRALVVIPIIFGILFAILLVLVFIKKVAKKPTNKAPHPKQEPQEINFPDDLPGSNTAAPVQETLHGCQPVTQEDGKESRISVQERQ
Description: (§1) Cells were washed with 2% FBS (w/v) in 1×PBS (flow cytometry staining buffer) by centrifugation with benchtop Centrifuge 5810R (Eppendorf®, Hamburg, Germany). Cells were incubated for 30 minutes at 4° C. with serial dilutions of following antibodies ranging from 1.7 pM to 100 nM in flow cytometry staining buffer (1) anti-CD40×CD40 bispecific antibodies, or (2) parental anti-CD40 antibodies (bivalent antibodies comprising 2 fragment antigen-binding [Fab] arms identical to one of the two anti-CD40 Fab of bispecific anti-CD40×CD40 antibodies), or (3) anti-CD40×Irrelevant antibodies (bivalent antibodies that incorporate one Fab arm identical to one of anti-CD40 Fab of anti-CD40×CD40 antibodies and another Fab arm specific to an irrelevant antigen, i.e. birch pollen main allergen Bet v1), or (4) human IgG4 isotype control antibodies with Fc mutation. After washing, cell bound antibodies were detected with 2.5 μg/ml Allophycocyanin (APC)-conjugated goat anti-human IgG antibody specific for the Fcγ fragment (Jackson Immunoresearch, West Grove, PA) for 30 minutes at 4° C. Cells were washed and subsequently fixed with 50% solution of Cytofix™ Fixation Buffer (BD, Franklin Lakes, NJ) in flow cytometry staining buffer for 20 minutes at room temperature. Cells were washed and resuspended in flow cytometry staining buffer and stored at 4° C. for downstream flow cytometry analysis.
(§2) Acquisition of fluorescence signals were recorded on the ZE5 Cell Analyzer (Bio-Rad, Hercules, CA) according to the manufacturer's recommended procedure and flow cytometry data analysis was performed using the open-source R packages flowCore, flowStats, flowDensity, ggCyto, and flowAI. Multiplexed samples were deconvoluted and individual cell populations were identified based on their unique CellTrace™ fluorescence signature. APC Median Fluorescence intensity (MFI) was recorded to indicate the binding intensity of each antibody over a range of concentrations. Antibodies with MFI greater than 1500 at the highest tested concentration (100 nM) were classified as specific binders. In addition, direct binding signals (APC MFI) were analyzed as a function of the antibody concentration and data were fitted with a sigmoidal (four-parameter logistic) dose-response model using GraphPad Prism™ software.

[2] = target: T1, human CD40 (hCD40) expressed on cells; assay: cell-based or functional assay
[3] = target: T1, human CD40 (hCD40) expressed on cells; assay: flow cytometry, Ramos 2G6.4C10 cells
Description: as §1, §2

[4] = target: T2, human CD40 extracellular domain expressed with a C-terminal myc-myc-hexahistidine tag (human); assay: ELISA blocking of 40 nM hCD40-mmH binding to 9His-hCD40L
T2 construct: also called hCD40-MMH; hCD40-mmH
T2 sequence (chain, as listed by the source limits assumed): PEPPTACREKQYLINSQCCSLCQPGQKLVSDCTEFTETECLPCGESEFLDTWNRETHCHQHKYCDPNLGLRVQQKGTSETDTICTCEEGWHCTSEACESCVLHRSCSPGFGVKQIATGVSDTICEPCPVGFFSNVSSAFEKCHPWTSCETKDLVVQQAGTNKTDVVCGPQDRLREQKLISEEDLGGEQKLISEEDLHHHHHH
Description: An ELISA-based blocking assay was developed to determine the ability of C40×CD40 bispecific antibodies to block the binding of the hCD40 monomer to plate-coated hCD40L. The recombinant human CD40-mmH protein (hCD40-MMH; REGN3094; SEQ ID NO: 53) used in the experiments comprises a portion of the human CD40 extracellular domain (amino acids P20-R193) fused to 2×Myc peptide and 6×histadine (SEQ ID NO: 1110) at the C-terminus of human CD40, and the human CD40L (accession #NM_000074.2) with amino acids E108-L261 of the extracellular domain with 9×His-2×(SGGG)-IGER at the N-terminus (9His-hCD40L) was commercially obtained from Biolegend.
In the blocking assay, 9His-hCD40L was passively absorbed at a concentration of 5 μg/mL in PBS on a 96-well microtiter plate overnight at 4° C. […] In a separate 96-well microtiter plate, a fixed amount of 40 nM hCD40-mmH was pre-mixed with one of the following antibodies, at concentrations ranging from 977 pM to 1 μM in PBS+0.5% BSA: (1) CD40×CD40 bispecific antibodies (REGN16431, REGN16432, REGN16634, and REGN16335); (2) parental CD40 mAbs (bivalent antibodies comprising 2 fragment antigen-binding [Fab] arms identical to one of anti-CD40 Fab of CD40×CD40 antibodies); (3) CD40×Irrelevant antibodies (bivalent antibodies that incorporate one Fab arm identical to one of anti-CD40 Fab of CD40×CD40 antibodies and another Fab arm specific to an irrelevant antigen); and (4) human IgG4 with Fc mutation isotype control antibodies (REGN7540 and REGN4513). The fixed concentration of hCD40-mmH was selected to be near the concentration (EC₅₀ value) that generated 50% of the maximal binding to the plate-adhered 9His-hCD40L. After one-hour incubation, the antibody-antigen complexes were transferred to the microtiter plate coated with 9His-hCD40L. After one hour incubation at room temperature, the plates were washed, and plate-bound hCD40-mmH protein was detected with horseradish peroxidase (HRP) conjugated goat anti-c-Myc antibody. The plates were then developed using TMB substrate solution (BD Biosciences) according to the manufacturer's recommended procedure and the absorbance at 450 nm (OD₄₅₀) was measured on a SpectraMax i3×plate reader.

[5] = target: T3, Macaca fascicularis CD40 (mfCD40) expressed on HEK293/D9/mfCD40 cells (Macaca fascicularis, UniProt G7PG38 21-278); assay: flow cytometry, HEK293/D9/mfCD40 cells
T3 construct: whole, on cells; also called monkey CD40
Description: as §1, §2

[6] = target: T1, human CD40 (hCD40) expressed on cells; assay: cell-based or functional assay; remark: listed apart in the source
[7] = target: T1, human CD40 (hCD40) expressed on cells; assay: cell-based or functional assay; remark: listed apart in the source
[8] = target: T1, human CD40 (hCD40) expressed on cells; assay: cell-based or functional assay; remark: listed apart in the source
[9] = target: T1, human CD40 (hCD40) expressed on cells; assay: cell-based or functional assay; remark: listed apart in the source
[10] = target: T1, human CD40 (hCD40) expressed on cells; assay: cell-based or functional assay; remark: listed apart in the source
[11] = target: T1, human CD40 (hCD40) expressed on cells; assay: cell-based or functional assay; remark: listed apart in the source
[12] = target: T1, human CD40 (hCD40) expressed on cells; assay: cell-based or functional assay; remark: listed apart in the source
[13] = target: T1, human CD40 (hCD40) expressed on cells; assay: cell-based or functional assay; remark: listed apart in the source

Row | Binder | EC50 [1] | MFI at 100 nM [1] | Max % activation, no ligand, THP-1 NFkB-luc [2] | Max % inhibition, 10 nM hCD40L, THP-1 NFkB-luc [2] | EC50 [3] | MFI at 100 nM [3] | % Blocking at 1 uM mAb [4] | EC50 [5] | MFI at 100 nM [5] | Max % activation, no ligand, Ramos NFkB-luc [6] | Max % inhibition, 500 pM hCD40L, Ramos NFkB-luc [6] | IC50, 900 pM hCD40L, Raji NFkB-luc [7] | Max % activation, no ligand, Raji NFkB-luc [7] | Max % inhibition, 900 pM hCD40L, Raji NFkB-luc [7] | IC50, 10 nM hCD40L, THP-1 NFkB-luc [2] | IC50 [4] | IC50, 500 pM hCD40L, Ramos NFkB-luc [6] | % max blockade relative to no mAb, IL-6, assay #2 donor 1 [8] | % max blockade relative to no mAb, IL-6, assay #2 donor 2 [8] | % max blockade relative to no mAb, IL-10, assay #2 donor 1 [9] | also measured
1 | B1 | 0.76 nM | 20500 MFI | 1% | -92% | 0.47 nM | 2660 MFI | 10% | 1.1 nM | 32900 MFI | 4% | -133% | 2.72e-11 M | 10% | 55% | – | – | – | – | – | – | EC50 (potentiation), 10 nM hCD40L, THP-1 NFkB-luc [2]: 0.016 nM; EC50 (potentiation), 500 pM hCD40L, Ramos NFkB-luc [6]: 7.51e-12 M
2 | B2 | 0.98 nM | 20500 MFI | 4% | 96% | 0.87 nM | 2440 MFI | 91% | 4.3 nM | 23200 MFI | 10% | 77% | 1.35e-10 M | 11% | 81% | 1.13 nM | 71 nM | 1.89e-10 M | – | – | – | –
3 | B3 | – | – | – | – | – | – | – | – | – | – | – | – | – | – | – | – | – | 89% | 88.1% | 87.1% | % max blockade relative to no mAb, IL-10, assay #2 donor 2 [9]: 90.9%; % max blockade relative to no mAb, TNFa, assay #2 donor 1 [10]: 61.9%; % max blockade relative to no mAb, TNFa, assay #2 donor 2 [10]: 52.3%
4 | B4 | 1.2 nM | 20300 MFI | 0% | 98% | 1.3 nM | 2420 MFI | 94% | 9.2 nM | 11800 MFI | 6% | 88% | 4.28e-11 M | 14% | 90% | 0.334 nM | 52 nM | 4.07e-11 M | – | – | – | –
5 | B5 | – | – | – | – | – | – | – | – | – | – | – | – | – | – | – | – | – | 88.6% | 88.3% | 88.1% | % max blockade relative to no mAb, IL-6, donor 1 [11]: 84.2%; % max blockade relative to no mAb, IL-6, donor 2 [11]: 91.3%; % max blockade relative to no mAb, IL-6, donor 3 [11]: 91.3%; % max blockade relative to no mAb, IL-10, donor 1 [12]: 84.1%; % max blockade relative to no mAb, IL-10, donor 2 [12]: 91.7%; % max blockade relative to no mAb, IL-10, donor 3 [12]: 91.4%; % max blockade relative to no mAb, IL-10, assay #2 donor 2 [9]: 90.5%; % max blockade relative to no mAb, TNFa, donor 1 [13]: 53.9%; % max blockade relative to no mAb, TNFa, donor 2 [13]: 71.4%; % max blockade relative to no mAb, TNFa, donor 3 [13]: 73.9%; % max blockade relative to no mAb, TNFa, assay #2 donor 1 [10]: 62%; % max blockade relative to no mAb, TNFa, assay #2 donor 2 [10]: 50.6%
